Like-named read-outs stand apart in the source and are kept apart here.
T1: Recombinant cynomolgus monkey TSLP-his (cynomolgus monkey)
T1 construct: Prepared in-house; Amine-coupled to CM5 chip in SPR, coated on plates in the indirect ELISA; also called cynomolgus TSLP; cynomolgus TSLP-his protein
T1 chain: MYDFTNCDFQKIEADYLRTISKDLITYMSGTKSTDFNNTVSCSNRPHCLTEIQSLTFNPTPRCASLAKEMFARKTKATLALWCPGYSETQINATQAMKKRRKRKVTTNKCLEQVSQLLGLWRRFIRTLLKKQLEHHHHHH

B1: mouse 1C5F12E9 (antibody, V domains shown)
VH: QVQLQQPGTELVKPGASVKMSCKASGYTFTTYWMHWVKQRPGQGLEWIGVIDPSDSDTTYNQKFKGKATLTVDTSSSTAYMQLSSLTSEDSAVYYCTRSLDGYYDYWGQGTTLTVSS
VL: DIQMTQSPASLSASVGETVTITCRPTENIYSYLAWYQQKQGKSPHLLVYFARTLAEGVPSRFSGSGSGTQFSLKINSLQPEDFGIYYCQHHYGTPWTFGGGTKLEIK
notes: also called mouse anti-TSLP 1C5F12E9 antibody
B2: Chimeric 1C5F12E9 (antibody, human IgG1, kappa, V domains shown)
VH: B1 VH
VL: DIQMTQSPASLSASVGETVTITCRPTENIYSYLAWYQQKQGKSPHLLVYFARTLAEGVPSRFSGSGSGTQFSLKINSLQPEDFGIYYCQHHYGTPWTFGGGTKLEIKR
notes: Human IgG1/kappa chimera expressed in 293F cells; also called chimeric 1C5F12E9 antibody
B3: hu1C5F12E9-V8 (IgG4) (antibody)
heavy: not shown
light: DIQMTQSPSSLSASVGDRVTITCRPTENIYSYLAWYQQKPGKAPKLLIYFARTLAEGVPSRFSGSGSGTDFTLTISSLQPEDFATYYCQHHYGTPWTFGGGTKVEIKRTVAAPSVFIFPPSDEQLKSGTASVVCLLNNFYPREAKVQWKVDNALQSGNSQESVTEQDSKDSTYSLSSTLTLSKADYEKHKVYACEVTHQGLSSPVTKSFNRGEC
notes: also called huC5F12E9-V8
B4: hu1C5F12E9-V8 (IgG1) (antibody)
heavy: not shown
light: B3 light
notes: Humanized, human IgG1/kappa

Experiments:
human TSLP-Fc [1] = target: T2, human TSLP-Fc (human, biotin-labeled); test: competitive ELISA: antibody pre-mixed with biotin-labeled human TSLP-Fc; blocked binding to coated Tezepelumab
T2 construct: Prepared in-house; also called biotin-labeled human TSLP-Fc; TSLP-Fc-biotin

[2] = target: T3, Recombinant human TSLP-his (human, UniProt Q969D9 29-159); test: capture ELISA: antibody captured on anti-IgG Fc coat, biotin-labeled human TSLP-his detected with streptavidin-HRP
T3 construct: Prepared in-house; Amine-coupled to CM5 chip in SPR, loaded on APS sensors in Octet, biotin-labeled in the capture ELISA, unlabeled in the cell functional assays; also called human TSLP-his protein

[3] = target: T1, Recombinant cynomolgus monkey TSLP-his; test: indirect ELISA on coated cynomolgus TSLP-his
[4] = target: T3, Recombinant human TSLP-his; test: capture ELISA: antibody captured on anti-IgG Fc coat, biotin-labeled human TSLP-his detected with streptavidin-HRP; remark: listed apart in the source
human TSLP-Fc [5] = target: T2, human TSLP-Fc; test: competitive ELISA: antibody pre-mixed with biotin-labeled human TSLP-Fc; blocked binding to coated Tezepelumab; remark: listed apart in the source
[6] = target: T1, Recombinant cynomolgus monkey TSLP-his; test: indirect ELISA on coated cynomolgus TSLP-his
human TSLP-Fc [7] = target: T2, human TSLP-Fc; test: competitive ELISA: antibody pre-mixed with biotin-labeled human TSLP-Fc; blocked binding to coated human TSLPR-Fc/IL7Ra-Fc
[8] = target: T3, Recombinant human TSLP-his; test: SPR, Biacore T200; TSLP-his amine-coupled to CM5 chip, antibody as analyte; 1:1 Langmuir fit
human TSLP-Fc [9] = target: T2, human TSLP-Fc; test: competitive ELISA: antibody pre-mixed with biotin-labeled human TSLP-Fc; blocked binding to coated human TSLPR-Fc/IL7Ra-Fc; remark: listed apart in the source
human TSLP-Fc [10] = target: T2, human TSLP-Fc; test: as above; remark: listed apart in the source
human TSLP-Fc [11] = target: T2, human TSLP-Fc; test: cell-based ligand-blocking FACS: antibody pre-mixed with human TSLP-Fc; blocked binding to BAF3-3E6 cells expressing human TSLPR and IL7R
[12] = target: T3, Recombinant human TSLP-his; test: BLI, Octet; TSLP-his loaded on APS biosensor, antibody in solution; 1:1 Langmuir fit
human TSLP-Fc [13] = target: T2, human TSLP-Fc; test: cell-based ligand-blocking FACS: antibody pre-mixed with human TSLP-Fc; blocked binding to BAF3-3E6 cells expressing human TSLPR and IL7R; remark: listed apart in the source
[14] = target: T1, Recombinant cynomolgus monkey TSLP-his; test: SPR, BIAcore; protocol of Example 2
[15] = target: T3, Recombinant human TSLP-his; test: SPR, BIAcore; protocol of Example 2
[16] = target: T3, Recombinant human TSLP-his; test: capture ELISA: antibody captured on anti-IgG Fc coat, biotin-labeled human TSLP-his detected with streptavidin-HRP; remark: listed apart in the source
human TSLP-Fc [17] = target: T2, human TSLP-Fc; test: cell-based ligand-blocking FACS: antibody pre-mixed with human TSLP-Fc; blocked binding to BAF3-3E6 cells expressing human TSLPR and IL7R; remark: listed apart in the source
[18] = target: T1, Recombinant cynomolgus monkey TSLP-his; test: indirect ELISA on coated cynomolgus TSLP-his; the row head of the drawn table reads IC50 although the curve rises (EC50 values were reported)
human TSLP-Fc [19] = target: T2, human TSLP-Fc; test: competitive ELISA: antibody pre-mixed with biotin-labeled human TSLP-Fc; blocked binding to coated Tezepelumab; remark: listed apart in the source
[20] = target: T3, Recombinant human TSLP-his; test: capture ELISA: antibody captured on anti-IgG Fc coat, biotin-labeled human TSLP-his detected with streptavidin-HRP; remark: listed apart in the source
human TSLP-Fc [21] = target: T2, human TSLP-Fc; test: cell-based ligand-blocking FACS: antibody pre-mixed with human TSLP-Fc; blocked binding to BAF3-3E6 cells expressing human TSLPR and IL7R; remark: listed apart in the source
[22] = target: T3, Recombinant human TSLP-his; test: SPR, Biacore T200; protocol of Example 2
human TSLP-Fc [23] = target: T2, human TSLP-Fc; test: competitive ELISA: antibody pre-mixed with biotin-labeled human TSLP-Fc; blocked binding to coated Tezepelumab; remark: listed apart in the source
human TSLP-Fc [24] = target: T2, human TSLP-Fc; test: cell-based ligand-blocking FACS: antibody pre-mixed with human TSLP-Fc; blocked binding to BAF3-3E6 cells expressing human TSLPR and IL7R; remark: listed apart in the source
[25] = target: T3, Recombinant human TSLP-his; test: capture ELISA: antibody captured on anti-IgG Fc coat, biotin-labeled human TSLP-his detected with streptavidin-HRP; remark: listed apart in the source
human TSLP-Fc [26] = target: T2, human TSLP-Fc; test: competitive ELISA: antibody pre-mixed with biotin-labeled human TSLP-Fc; blocked binding to coated human TSLPR-Fc/IL7Ra-Fc; remark: listed apart in the source

Binder	IC50 (human TSLP-Fc [1]) [nM]	EC50 [2] [nM]	EC50 [3] [nM]	IC50 (human TSLP-Fc [9]) [nM]	Kd [12] [nM]	koff [12] [s⁻¹]	kon [12] [M⁻¹ s⁻¹]	IC50 (human TSLP-Fc [13]) [nM]	Kd [14] [nM]	koff [14] [s⁻¹]	kon [14] [M⁻¹ s⁻¹]	Kd [15] [nM]	koff [15] [s⁻¹]	kon [15] [M⁻¹ s⁻¹]	EC50 [16] [nM]	IC50 (human TSLP-Fc [17]) [nM]	IC50 (human TSLP-Fc [23]) [nM]	IC50 (human TSLP-Fc [24]) [nM]	EC50 [25] [nM]	other results
B1	0.366	0.151	0.202	0.139	0.226	0.000135	600000	2.41	< 0.0346	< 1e-05	289000	< 0.0966	< 1e-05	104000	0.36	0.514				EC50 [4]: 0.16 nM; IC50 (human TSLP-Fc [5]): 0.15 nM; EC50 [6]: 0.101 nM; IC50 (human TSLP-Fc [7]): 0.391 nM; Kd [8]: < 0.11 nM; koff [8]: < 1e-05 s⁻¹; kon [8]: 91100 M⁻¹ s⁻¹; IC50 (human TSLP-Fc [10]): 0.694 nM; IC50 (human TSLP-Fc [11]): 0.625 nM; EC50 [18]: 0.407 nM; IC50 (human TSLP-Fc [19]): 0.262 nM; EC50 [20]: 0.146 nM; IC50 (human TSLP-Fc [21]): 1.63 nM
B2	0.291	0.161	0.0918	0.1	0.222	0.000159	715000	~3.12	< 0.0261	< 1e-05	383000	< 0.0517	< 1e-05	193000	0.448	0.627				Kd [22]: 0.914 nM; koff [22]: 6.36e-05 s⁻¹; kon [22]: 69600 M⁻¹ s⁻¹
B3	0.381	0.173	0.17	0.145				2.38	< 0.0328			< 0.0598					1.06	~1.1	0.124	
B4																	0.78	~1.12	0.116	IC50 (human TSLP-Fc [26]): 0.707 nM

From patent US20220289833A1 (BIOSION, published 2022)
